This is an account of results in patent EP4628507A1.

Where two headings read alike, the source gives them in different places.

For assay [1], the target named is human CD16A-V176 on CHO / CHO-K1 cells (human) (UniProt P08637). Put plainly: flow cytometry on CHO-K1-CD16A V176 cells. Background: In flow cytometry, cells or beads pass a laser one at a time.
Assay [2] deals with human CLDN18.2 on cells (NUGC4-hi18.2 cells; SNU601 cells in the ADCC assay) (human) (UniProt P56856). Put plainly: flow cytometry on NUGC4-hi18.2 cells.
The target in assay [3] is human 4-1BB on the surface of HEK293-Hu4-1BB cells (human) (UniProt Q07011). Put plainly: cell-based or functional assay.
Assay [4] concerns the target human CLDN18.2 on cells (NUGC4-hi18.2 cells; SNU601 cells in the ADCC assay) (human) (UniProt P56856). Put plainly: cell-based or functional assay.
For assay [5], the target named is human 4-1BB on the surface of HEK293-Hu4-1BB cells (human) (UniProt Q07011). Nature of the assay: cell-based or functional assay. This is another data set of the same source.
Assay [6] deals with human CLDN18.2 on cells (NUGC4-hi18.2 cells; SNU601 cells in the ADCC assay) (human) (UniProt P56856). Nature of the assay: flow cytometry on NUGC4-hi18.2 cells, isotype control.
The target of assay [7] is human 4-1BB on the surface of HEK293-Hu4-1BB cells (human) (UniProt Q07011). Nature of the assay: flow cytometry on HEK293-Hu4-1BB cells, isotype control.
The target is the same in assay [8]. The description is as above. This is another data set of the same source.
For assay [9] the target is unchanged. The description is as above. The source holds these as a separate data set.
Assay [10] addresses human CD16A-V176 on CHO / CHO-K1 cells (human) (UniProt P08637). Nature of the assay: flow cytometry on CHO-K1-CD16A V176 cells, isotype control.

Chain of human 4-1BB on the surface of HEK293-Hu4-1BB cells (human) (Q07011 24-255): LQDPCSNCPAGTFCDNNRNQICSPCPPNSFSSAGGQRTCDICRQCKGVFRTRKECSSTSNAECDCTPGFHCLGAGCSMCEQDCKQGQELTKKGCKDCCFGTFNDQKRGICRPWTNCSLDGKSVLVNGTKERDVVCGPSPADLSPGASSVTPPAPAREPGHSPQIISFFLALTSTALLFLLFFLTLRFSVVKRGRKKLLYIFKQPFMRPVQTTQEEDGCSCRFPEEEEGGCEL
Chain of human CD16A-V176 on CHO / CHO-K1 cells (human) (P08637 17-254 F176V): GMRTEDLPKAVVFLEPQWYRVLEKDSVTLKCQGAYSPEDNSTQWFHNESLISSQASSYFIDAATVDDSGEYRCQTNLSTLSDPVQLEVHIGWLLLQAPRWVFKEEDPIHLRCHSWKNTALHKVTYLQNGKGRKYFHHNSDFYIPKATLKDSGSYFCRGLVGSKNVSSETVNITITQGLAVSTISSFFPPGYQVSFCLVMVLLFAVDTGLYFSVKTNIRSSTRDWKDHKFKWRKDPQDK

For orientation: EC50 means the concentration that produces a half-maximal response. High values mean a less potent agent, low ones a more potent agent. Consider IMAB362 (antibody), for which, in [1], the EC50 came out at 14.8 nM and the Maximal fluorescence value stood at 3390.

Take TJ-CD4B (bispecific antibody): in assay [2], the concentration for a half-maximal effect (EC50) worked out at 16.2 nM and the Maximal fluorescence value came out at 89300. Besides, the Maximal fluorescence value in assay [1] was 113.

In assay [3], isotype IgG1 antibody (control) yielded an Emax, 4-1BB/NF-κB luciferase reporter, FcγRIIb cross-linking (relative to the antibody-free group) of 1.12; an Emax, 4-1BB/NF-κB luciferase reporter, no FcγRIIb cross-linking (relative to the antibody-free group) of 1.1; a Fold change in Emax, 4-1BB/NF-κB luciferase reporter, CLDN18.2 cross-linking of 1.17 fold; a Fold change in Emax, 4-1BB/NF-κB luciferase reporter, no CLDN18.2 cross-linking of 1.16 fold. In [4], this substance gave an ADCC maximum killing rate, NUGC4-hi18.2 target cells, PBMC donor S2001102 (V176) of 21.8%; an ADCC maximum killing rate, NUGC4-hi18.2 target cells, PBMC donor SC190061 (F176) of 10.7%; an ADCC maximum killing rate, SNU601 target cells, PBMC donor S2001102 (V176) of 22.7%; an ADCC maximum killing rate, SNU601 target cells, PBMC donor SC190061 (F176) of 11.4%. For the same substance, in assay [4], the ADCP maximum phagocytosis rate, macrophages against NUGC4-hi18.2 cells turned out to be 19.8%. In assay [5], this substance came in with a Fold change in Emax, 4-1BB/NF-κB luciferase reporter, CLDN18.2 cross-linking of 1.15 fold and a Fold change in Emax, 4-1BB/NF-κB luciferase reporter, no cross-linking of 1.17 fold. Moreover, the Maximal fluorescence value in assay [6] was determined as 107. Moreover, the Maximal fluorescence value in assay [7] is 67. The Maximal fluorescence value in [8] was 123. The substance further came in with a Maximal fluorescence value in [9] of 106. Besides, in [10], the Maximal fluorescence value turned out to be 1590.

In assay [5], ADG106 (antibody) showed a Fold change in Emax, 4-1BB/NF-κB luciferase reporter, CLDN18.2 cross-linking of 1.42 fold and a Fold change in Emax, 4-1BB/NF-κB luciferase reporter, no cross-linking of 1.13 fold.
